This note sets out measurements from the Human Domainome abundance scans (Beltran et al. 2025).

± gives the uncertainty stated by the source.

This data set in a line: abundance fitness (aPCA) (normalised: wild type 0, dead -1); higher = more abundant; growth selection in yeast, the domain comes from the species named. Conditions: Homo sapiens.
Regarding “Lipoamide acyltransferase component of branched-chain alpha-keto acid dehydrogenase complex, mitochondrial P175V, P11182”, the abundance fitness is -0.029 ± 0.043.

In the case of “Lipoamide acyltransferase component of branched-chain alpha-keto acid dehydrogenase complex, mitochondrial P175W, P11182”, the abundance fitness is -0.136 ± 0.042.

For the substance “Lipoamide acyltransferase component of branched-chain alpha-keto acid dehydrogenase complex, mitochondrial P175Y, P11182”, the abundance fitness was -0.24 ± 0.066.

Substance “Lipoamide acyltransferase component of branched-chain alpha-keto acid dehydrogenase complex, mitochondrial Q212A, P11182” displayed an abundance fitness of 0.006 ± 0.036.

As to “Lipoamide acyltransferase component of branched-chain alpha-keto acid dehydrogenase complex, mitochondrial Q212C, P11182”, the abundance fitness was -0.047 ± 0.052.

Turning to “Lipoamide acyltransferase component of branched-chain alpha-keto acid dehydrogenase complex, mitochondrial Q212D, P11182”, the abundance fitness was -0.009 ± 0.13.

For “Lipoamide acyltransferase component of branched-chain alpha-keto acid dehydrogenase complex, mitochondrial Q212E, P11182”, the abundance fitness came out at 0.02 ± 0.043.

For the substance “Lipoamide acyltransferase component of branched-chain alpha-keto acid dehydrogenase complex, mitochondrial Q212F, P11182”, the abundance fitness is -0.392 ± 0.11.

For the substance “Lipoamide acyltransferase component of branched-chain alpha-keto acid dehydrogenase complex, mitochondrial Q212G, P11182”, the abundance fitness turned out to be 0.023 ± 0.034.

Regarding “Lipoamide acyltransferase component of branched-chain alpha-keto acid dehydrogenase complex, mitochondrial Q212H, P11182”, the abundance fitness is 0.011 ± 0.065.

In turn, “Lipoamide acyltransferase component of branched-chain alpha-keto acid dehydrogenase complex, mitochondrial Q212I, P11182” yielded an abundance fitness of -0.255 ± 0.089.

“Lipoamide acyltransferase component of branched-chain alpha-keto acid dehydrogenase complex, mitochondrial Q212K, P11182”: the abundance fitness was 0.007 ± 0.061.

The substance “Lipoamide acyltransferase component of branched-chain alpha-keto acid dehydrogenase complex, mitochondrial Q212L, P11182” had an abundance fitness of -0.189 ± 0.043.

In turn, “Lipoamide acyltransferase component of branched-chain alpha-keto acid dehydrogenase complex, mitochondrial Q212M, P11182” yielded an abundance fitness of -0.108 ± 0.049.

The substance “Lipoamide acyltransferase component of branched-chain alpha-keto acid dehydrogenase complex, mitochondrial Q212N, P11182” displayed an abundance fitness of 0.124 ± 0.14.

Turning to “Lipoamide acyltransferase component of branched-chain alpha-keto acid dehydrogenase complex, mitochondrial Q212P, P11182”, the abundance fitness was -0.017 ± 0.036.

“Lipoamide acyltransferase component of branched-chain alpha-keto acid dehydrogenase complex, mitochondrial Q212R, P11182” returned an abundance fitness of 0.085 ± 0.042.

“Lipoamide acyltransferase component of branched-chain alpha-keto acid dehydrogenase complex, mitochondrial Q212S, P11182” yielded an abundance fitness of 0.004 ± 0.04.

For “Lipoamide acyltransferase component of branched-chain alpha-keto acid dehydrogenase complex, mitochondrial Q212T, P11182”, the abundance fitness came to 0.017 ± 0.06.

“Lipoamide acyltransferase component of branched-chain alpha-keto acid dehydrogenase complex, mitochondrial Q212V, P11182” returned an abundance fitness of -0.075 ± 0.038.

Turning to “Lipoamide acyltransferase component of branched-chain alpha-keto acid dehydrogenase complex, mitochondrial Q212W, P11182”, the abundance fitness was -0.218 ± 0.046.

As for “Lipoamide acyltransferase component of branched-chain alpha-keto acid dehydrogenase complex, mitochondrial Q212Y, P11182”, the abundance fitness amounted to 0.108 ± 0.44.

Regarding “Lipoamide acyltransferase component of branched-chain alpha-keto acid dehydrogenase complex, mitochondrial R178A, P11182”, the abundance fitness is -0.028 ± 0.043.

As for “Lipoamide acyltransferase component of branched-chain alpha-keto acid dehydrogenase complex, mitochondrial R178C, P11182”, the abundance fitness is -0.173 ± 0.083.

For the substance “Lipoamide acyltransferase component of branched-chain alpha-keto acid dehydrogenase complex, mitochondrial R178D, P11182”, the abundance fitness was -0.626 ± 0.076.

“Lipoamide acyltransferase component of branched-chain alpha-keto acid dehydrogenase complex, mitochondrial R178E, P11182” came in with an abundance fitness of -0.022 ± 0.053.

The substance “Lipoamide acyltransferase component of branched-chain alpha-keto acid dehydrogenase complex, mitochondrial R178F, P11182” came in with an abundance fitness of -0.261 ± 0.1.

In the case of “Lipoamide acyltransferase component of branched-chain alpha-keto acid dehydrogenase complex, mitochondrial R178G, P11182”, the abundance fitness is -0.361 ± 0.046.

In the case of “Lipoamide acyltransferase component of branched-chain alpha-keto acid dehydrogenase complex, mitochondrial R178H, P11182”, the abundance fitness is -0.1 ± 0.072.

As to “Lipoamide acyltransferase component of branched-chain alpha-keto acid dehydrogenase complex, mitochondrial R178I, P11182”, the abundance fitness is 0.002 ± 0.059.

In the case of “Lipoamide acyltransferase component of branched-chain alpha-keto acid dehydrogenase complex, mitochondrial R178K, P11182”, the abundance fitness worked out at 0.051 ± 0.058.

As for “Lipoamide acyltransferase component of branched-chain alpha-keto acid dehydrogenase complex, mitochondrial R178L, P11182”, the abundance fitness is -0.165 ± 0.038.

On to “Lipoamide acyltransferase component of branched-chain alpha-keto acid dehydrogenase complex, mitochondrial R178M, P11182”, for which the abundance fitness is -0.035 ± 0.048.

As to “Lipoamide acyltransferase component of branched-chain alpha-keto acid dehydrogenase complex, mitochondrial R178N, P11182”, the abundance fitness is -0.241 ± 0.071.

“Lipoamide acyltransferase component of branched-chain alpha-keto acid dehydrogenase complex, mitochondrial R178P, P11182” registered an abundance fitness of -1.38 ± 0.33.

“Lipoamide acyltransferase component of branched-chain alpha-keto acid dehydrogenase complex, mitochondrial R178Q, P11182” yielded an abundance fitness of -0.024 ± 0.064.

In the case of “Lipoamide acyltransferase component of branched-chain alpha-keto acid dehydrogenase complex, mitochondrial R178S, P11182”, the abundance fitness is -0.081 ± 0.057.

The substance “Lipoamide acyltransferase component of branched-chain alpha-keto acid dehydrogenase complex, mitochondrial R178T, P11182” displayed an abundance fitness of -0.114 ± 0.067.

“Lipoamide acyltransferase component of branched-chain alpha-keto acid dehydrogenase complex, mitochondrial R178W, P11182” gave an abundance fitness of -0.27 ± 0.053.

On to “Lipoamide acyltransferase component of branched-chain alpha-keto acid dehydrogenase complex, mitochondrial R179A, P11182”, for which the abundance fitness is -0.048 ± 0.042.

“Lipoamide acyltransferase component of branched-chain alpha-keto acid dehydrogenase complex, mitochondrial R179D, P11182”: the abundance fitness was -0.228 ± 0.11.

“Lipoamide acyltransferase component of branched-chain alpha-keto acid dehydrogenase complex, mitochondrial R179E, P11182” gave an abundance fitness of 0.011 ± 0.068.

“Lipoamide acyltransferase component of branched-chain alpha-keto acid dehydrogenase complex, mitochondrial R179G, P11182” came in with an abundance fitness of -0.257 ± 0.038.

With “Lipoamide acyltransferase component of branched-chain alpha-keto acid dehydrogenase complex, mitochondrial R179H, P11182”, the abundance fitness is -0.368 ± 0.14.

The substance “Lipoamide acyltransferase component of branched-chain alpha-keto acid dehydrogenase complex, mitochondrial R179I, P11182” yielded an abundance fitness of -0.248 ± 0.059.

“Lipoamide acyltransferase component of branched-chain alpha-keto acid dehydrogenase complex, mitochondrial R179K, P11182” showed an abundance fitness of -0.021 ± 0.052.
